Test results reported in patent publication US9234001B2, “Cysteine-free efficient Technetium (Tc) or Rhenium (Re) chelating peptide tags and their use” (Commissariat a L'Energie Atomique et aux Energies …, priority 2008, dated 2016).
Ends that are not written are not given here.

Assays:
[1] = 30 equivalents of Cysteine; cited from earlier work
CHO-SST-2 (mb) = biological target: T1, CHO-SST-2 (mb) (Homo sapiens, UniProt P30874); assay: Binding to somatostatin receptor, CHO-SST-2 membranes
T1 construct: expressed in transfected cells; host or cells: CHO cell membranes (mb)
Method: After subtraction of the non-specific binding and normalization, data obtained with [^125I][Tyr^1]-somatostatin were analyzed using the Hill equation to estimate the IC50 values.

[2] = Cysteine challenge of TcO complexes; format: physicochemical; details: pH 7.4, 20 h, 310 K
Method: A solution containing 16 μg of lyophilized TcO[UBI 29-41] (SEQ ID NO: 1) was added to 32 μl of Cysteine solution in PBS pH 7.4. Three concentrations of Cysteine solution were used: 100 mM, 15 mM and 1 mM corresponding respectively to a molar ratio Cysteine:Tc-UBI-WT of 333, 53 and 3. The samples were incubated for 20 h at 310 K prior to HPLC and ESI-MS analysis. Similar experiment was performed for TcO[TGRRR] (SEQ ID: NO 22) complex. 13 μg of lyophilized TGRRR(SEQ ID: NO 22)-TcO complex were added to 64 μl of 15 mM Cysteine solution in PBS pH 7.4 corresponding to a TcO[TGRRR] (SEQ ID: NO 22):Cysteine molar ratio of 50. This solution was incubated for 20 h at room temperature prior to HPLC analysis.
To be useful for the in vivo application of the TGRRR sequence (SEQ ID NO: 26) to label peptides or proteins, the TcO[TGRRR] (SEQ ID NO: 27) complex must be stable during 1-3 times the period of ^99mTc. The inventors evaluated the stability of the [TcO]^3+ complexes in the case of the peptide UBI-WT (SEQ ID: NO 1) and TGRRR, (peptide P13; SEQ ID NO: 26). To this end, the inventors performed a Cysteine challenge. 16 μg of the TcO[UBI-WT] was added to 1, 15, and 100 mM solutions of Cysteine at pH 7.4 corresponding respectively to molar ratio of 3, 53 and 333. These samples were incubated for 20 h at 310 K. The mixtures were analyzed by HPLC and LC-MS.

[3] = test system: AR4-2J xenografted tumour; details: mouse, in vivo
Method: Females Balb/c nude mice weighing 20 g were purchased from Charles River Laboratories (L'Arbresle, France). The mice were kept in a conventional animal facility and had access ad libitum to food and drink. The experimental protocol has been approved by the local ethical committee for animal experimentation.
Mice were implanted subcutaneously with 5-6 millions AR4-2J cells freshly suspended in sterile PBS. […] After 1 h, 4 h or 24 h time period, the mice were sacrificed by ex-sanguination under anaesthesia. Organs of interest, blood and urine were collected and weighted. The radioactivity was measured with a gamma counter.
Two control experiments were also conducted.

[4] = test system: AR4-2J xenografted tumour; assay: Whole body section imaging with β-imager; format: in vivo, mice
Method: Full Body section analysis: the mice were injected by caudal vein and sacrificed 4 hours later. For imaging, the mice were anesthesied and then immersed in an −80° C. mixture of dry ice and isopentane to prevent CNT tissue redistribution. After blocking the body in mounting medium, tissue sections (20 μm) were made at −20° C. with a slicing microtome (LEICA Microsystems, France). Sections were kept at room temperature for 2 hours in the presence of silica gel to ensure complete drying.
The quantitative determination of the radioactivity in dried tissue sections and imaging were carried out using a β-imager (Biospace Lab, Paris, France).

T1 sequence (P30874 whole entry): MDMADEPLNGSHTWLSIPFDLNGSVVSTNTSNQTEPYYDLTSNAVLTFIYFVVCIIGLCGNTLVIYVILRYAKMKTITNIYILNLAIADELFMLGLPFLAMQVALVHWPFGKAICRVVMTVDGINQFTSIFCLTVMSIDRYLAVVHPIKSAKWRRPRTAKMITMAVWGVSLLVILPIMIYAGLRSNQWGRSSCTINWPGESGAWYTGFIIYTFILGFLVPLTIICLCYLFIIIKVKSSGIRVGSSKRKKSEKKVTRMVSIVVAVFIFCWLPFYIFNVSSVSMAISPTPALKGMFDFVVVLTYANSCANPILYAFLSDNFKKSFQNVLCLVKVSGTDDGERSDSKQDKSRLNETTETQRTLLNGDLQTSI

Compound: [AGGG]TcO complex: TcO complex of the peptide AGGG (SEQ ID NO: 31), from the literature (also: TcO complex)
- stability against Cysteine [1]: completely unstable

Compound: CC(C)[C@@H]1NC(=O)[C@H](CCCCN)NC(=O)[C@@H](Cc2c[nH]c3ccccc23)NC(=O)[C@H](Cc2ccc(O)cc2)NC(=O)[C@@H](NC(=O)[C@@H](Cc2ccccc2)NC(=O)CNC(=O)CNC(=O)[C@H](CCCNC(=N)N)NC(=O)[C@H](CCCNC(=N)N)NC(=O)[C@H](CCCNC(=N)N)NC(=O)CNC(=O)[C@@H](N)[C@@H](C)O)CSSC[C@@H](C(=O)N[C@H](C(N)=O)[C@@H](C)O)NC1=O
- Ki (CHO-SST-2 (mb)): 0.02 nM

Compound: TcO[HTGRRR]: [TcO]3+ complex of the TGRRR peptide (P13) (TGRRR-OH; also: TcO complex)
- initial [TcO]3+ complex observed ([2]; 15 mM Cysteine): 57%
- Tumor/Blood Ratio [3]: 1
- Tumor/Muscle Ratio [3]: 2.6
- radioactivity in Adrenals [3]: 2.2 ± 4.7 % ID/g
- radioactivity in Bile [3]: 6.6 ± 2.4 % ID/g
- radioactivity in Blood [3]: 0.3 ± 0.3 % ID/g
- radioactivity in Brain [3]: 0.1 ± 0.2 % ID/g
- radioactivity in Carcass [3]: 0.2 ± 0.1 % ID/g
- radioactivity in Heart [3]: 0.7 ± 0.6 % ID/g
- radioactivity in Intestines [3]: 1.3 ± 0.8 % ID/g
- radioactivity in Kidneys [3]: 21.9 ± 9.5 % ID/g
- radioactivity in Liver [3]: 2.1 ± 0.5 % ID/g
- radioactivity in Lungs [3]: 0.6 ± 0.8 % ID/g
- radioactivity in Muscle [3]: 0.8 ± 1.23 % ID/g
- radioactivity in Pancreas [3]: 0.3 ± 0.6 % ID/g
- radioactivity in Spleen [3]: 0.7 ± 0.6 % ID/g
- radioactivity in Stomach [3]: 2.6 ± 2.2 % ID/g
- radioactivity in Tail [3]: 5.3 ± 4.5 % ID/g
- radioactivity in Urine [3]: 8.6 ± 5.5 % ID/g

Compound: TcO[HTGRRRGG-RC-121]: TcO complex of HTGRRRGG-RC-121
- radioactivity uptake in the tumour region, β-imaging of whole body section ([4]; group 1, 4 hours post injection): important uptake of the labelled compound in this region
- radioactivity uptake in the tumour region, β-imaging of whole body section ([4]; group 2, 125-fold excess of RC-121, 4 hours post injection): absence of radioactivity uptake

Compound: TGRAKRRMQYNRR (Ac-TGRAKRRMQYNRR-NH2) [SEQ ID NO: 1, N-acetylated, C-amidated tridecamer, residue 29 to 41 of the protein Ubiquicidine]
- initial [TcO]3+ complex observed ([2]; 1 mM Cysteine): more than 95%
- initial [TcO]3+ complex observed ([2]; 15 mM Cysteine): 69%
- initial [TcO]3+ complex observed ([2]; 100 mM Cysteine): 10%
